According to patent publication US20200317768A1 (published 2020):

Experiments:
Human latent myostatin [1] = target: T1, Human latent myostatin (human, UniProt O14793 25-266; O14793 267-375); assay: SPR (BIACORE) as in Example 7; antigen not given, values equal those for human latent myostatin in Table 3
T1 construct: Biotinylated in the ELISAs; also called human myostatin latent form
T1 sequence 1: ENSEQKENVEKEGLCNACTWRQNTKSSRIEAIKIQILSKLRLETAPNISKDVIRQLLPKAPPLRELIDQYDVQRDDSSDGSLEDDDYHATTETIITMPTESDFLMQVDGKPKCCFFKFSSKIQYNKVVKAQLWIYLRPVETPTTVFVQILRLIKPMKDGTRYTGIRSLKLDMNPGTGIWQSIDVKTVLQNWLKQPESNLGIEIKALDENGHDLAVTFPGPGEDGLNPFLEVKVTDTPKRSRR
T1 sequence 2: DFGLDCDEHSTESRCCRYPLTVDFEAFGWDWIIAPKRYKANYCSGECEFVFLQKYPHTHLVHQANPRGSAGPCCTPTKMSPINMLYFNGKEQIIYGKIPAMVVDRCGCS
Description: (§1) The kinetic parameters of anti-latent myostatin antibodies against human, cynomolgus monkey (cyno), and mouse latent myostatin were assessed at 37° C. at pH7.4 using a BIACORE® T200 instrument (GE Healthcare). ProA/G (Pierce) was immobilized onto all flow cells of a CM4 chip using amine coupling kit (GE Healthcare). Anti-latent myostatin antibody and analytes were prepared in ACES pH7.4 (20 mM ACES, 150 mM NaCl, 1.2 mM CaCl₂), 0.05% TWEEN® 20, 0.005% NaN₃). […] Then human, cyno, or mouse latent myostatin was injected at 3.125 to 50 nM prepared by two-fold serial dilution, followed by dissociation. The sensor surface was regenerated with 25 mM NaOH. Kinetic parameters were determined by processing and fitting the data to a 1:1 binding model using BIACORE® T200 Evaluation software, version 2.0 (GE Healthcare).
Humanized antibodies were transiently expressed in FS293-F cells, and HEK Blue Assay and BIACORE® analysis were carried out as described above.

Human latent myostatin [2] = target: T1, Human latent myostatin; assay: SPR (BIACORE T200), antibody captured by ProA/G, latent myostatin as analyte, 37 C, pH7.4, 1:1 fit
Description: as §1

Mouse latent myostatin = target: T2, Mouse latent myostatin (mouse, UniProt O08689 26-267; O08689 268-376); assay: as above
T2 construct: signal 1-24
T2 sequence 1: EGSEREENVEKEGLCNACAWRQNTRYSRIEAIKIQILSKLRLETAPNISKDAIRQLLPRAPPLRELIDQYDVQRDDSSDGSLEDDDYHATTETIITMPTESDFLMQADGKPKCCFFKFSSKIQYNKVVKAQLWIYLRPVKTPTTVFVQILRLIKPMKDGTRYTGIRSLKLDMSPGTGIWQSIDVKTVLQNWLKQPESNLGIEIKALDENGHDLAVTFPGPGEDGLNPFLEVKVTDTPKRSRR
T2 sequence 2: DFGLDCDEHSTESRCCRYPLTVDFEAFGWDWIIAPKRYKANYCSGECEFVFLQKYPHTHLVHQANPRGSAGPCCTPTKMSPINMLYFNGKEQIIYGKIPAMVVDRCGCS
Description: as §1

[3] = target: T3, Cynomolgus monkey latent myostatin (cynomolgus monkey, UniProt Q95J86 25-266; Q95J86 267-375); assay: as above
T3 construct: signal 1-24; also called Cyno latent myostatin
T3 sequence 1: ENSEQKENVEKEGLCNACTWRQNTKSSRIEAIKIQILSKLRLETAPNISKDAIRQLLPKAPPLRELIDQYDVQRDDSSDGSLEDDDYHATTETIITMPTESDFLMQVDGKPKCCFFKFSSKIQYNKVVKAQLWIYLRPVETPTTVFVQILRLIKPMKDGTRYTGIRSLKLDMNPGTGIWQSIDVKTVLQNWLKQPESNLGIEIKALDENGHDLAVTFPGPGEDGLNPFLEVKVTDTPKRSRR
T3 sequence 2: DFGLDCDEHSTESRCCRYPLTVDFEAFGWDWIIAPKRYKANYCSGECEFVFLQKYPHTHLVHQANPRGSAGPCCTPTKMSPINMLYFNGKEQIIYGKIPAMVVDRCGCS
Description: as §1

mature myostatin = target: T4, mature myostatin (human (mature form 100% identical in …, UniProt O08689 268-376 (mouse entry))); assay: ELISA, biotinylated antigen (4 nM) on streptavidin plate, anti-human IgG-HRP
T4 construct: Disulfide-bonded homodimer purified from latent myostatin; Biotinylated in the ELISA; also called human myostatin mature form; active myostatin
T4 sequence: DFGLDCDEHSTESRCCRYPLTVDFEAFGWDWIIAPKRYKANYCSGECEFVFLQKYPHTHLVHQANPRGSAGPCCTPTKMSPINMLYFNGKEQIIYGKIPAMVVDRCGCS
Description: Uncoated ELISA plates (NUNC-IMMUNO plate MAXISORP surface, Nalge Nunc International) were coated with 20 μL of 50 nM streptavidin (GenScript) for 1 hour at room temperature. Plates were then washed with PBST three times and blocked with 50 μL 20% Blocking One (Nacalai Tesque) overnight. On the next day, each well of each plate was incubated with biotinylated mature myostatin, human or mouse biotinylated latent myostatin, or biotinylated recombinant mouse myostatin propeptide-Fc chimera protein (R&D Systems) at 4 nM/well/20 μL for 2 hours. After washing, 20 μL of antibody sample was added to the wells and the plates were left for 1 hour. The plates were washed and 20 μL of anti-human IgG-horseradish peroxidase (HRP) (Abcam) diluted in HEPES-buffered saline was added, and the plates were left for another hour. The plates were then washed again, and then 50 μL ABTS (KPL) was added to each well, and the plates were incubated for 1 hour.

[4] = target: T5, Human GDF11 with Flag-tag on N-terminus (human, UniProt O95390 11-407); assay: ELISA, biotinylated human latent GDF11 (20 nM) on streptavidin plate, anti-human IgG-HRP
T5 construct: Whole entry as named; Biotinylated in the ELISA; also called Flag-hGDF11; human latent GDF11
T5 sequence: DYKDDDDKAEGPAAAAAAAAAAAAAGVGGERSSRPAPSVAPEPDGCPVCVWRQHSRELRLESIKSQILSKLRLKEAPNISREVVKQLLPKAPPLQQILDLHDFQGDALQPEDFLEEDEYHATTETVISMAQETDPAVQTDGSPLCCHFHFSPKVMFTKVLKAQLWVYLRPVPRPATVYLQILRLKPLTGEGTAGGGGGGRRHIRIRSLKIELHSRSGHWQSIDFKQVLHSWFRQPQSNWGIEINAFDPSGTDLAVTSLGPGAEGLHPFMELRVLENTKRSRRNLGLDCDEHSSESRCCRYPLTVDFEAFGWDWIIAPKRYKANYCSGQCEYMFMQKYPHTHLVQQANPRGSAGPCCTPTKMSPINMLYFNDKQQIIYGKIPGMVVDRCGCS
Description: Uncoated ELISA plates (NUNC-IMMUNO plate MAXISORP™ surface, Nalge Nunc International) were coated with 20 μL of 50 nM streptavidin (GenScript) for 2 hour at room temperature. Plates were then washed with PBST three times and blocked with 50 μL 20% Blocking One (Nacalai Tesque) for overnight. On the next day, each well of the plates was incubated with biotinylated human latent myostatin at 2 nM/well/20 μL or biotinylated human latent GDF11 at 20 nM/well/20 μL for 2 hours. After washing, 20 μL of antibody sample was added to the wells and the plates were left for 1 hour. The plates were washed and 20 μL of anti-human IgG-horseradish peroxidase (HRP) (Abcam) diluted in HEPES-buffered saline was added, and the plates were left for another hour. The wells were washed again, and then 50 μL ABTS (KPL) was added to each well, and the plates were incubated for 1 hour.

Kd (Human latent myostatin [1]): 0.0766 nM
koff (Human latent myostatin [1]): 8.65e-05 s⁻¹
kon (Human latent myostatin [1]): 1.13e+06 M⁻¹ s⁻¹
Kd (Human latent myostatin [2]): 0.0766 nM
koff (Human latent myostatin [2]): 8.65e-05 s⁻¹
kon (Human latent myostatin [2]): 1.13e+06 M⁻¹ s⁻¹
Kd (Mouse latent myostatin): 0.0579 nM
koff (Mouse latent myostatin): 8.16e-05 s⁻¹
kon (Mouse latent myostatin): 1.41e+06 M⁻¹ s⁻¹
Kd [3]: 0.0717 nM
koff [3]: 7.79e-05 s⁻¹
kon [3]: 1.09e+06 M⁻¹ s⁻¹
binding result (mature myostatin): no binding
binding result [4]: no binding
B1: MS_MST1032Ha-G1m/MST1032La-k0MC (antibody, human IgG1, kappa, V domains shown)
VH: QSLEESGGRLVTPGGSLTVTCRVSGIDLSSYDISWVRQAPGKGLEWIGIISYAGSTYYASWAKGRFTISKTSTTVDLKMTSLTTEDTATYFCARGVPAYSTGGDLWGPGTLVTVSS
VL: AQVLTQTASSVSAAVGGTVTINCQSSQSVYDNNWLSWFQQKPGQPPKLLIYWASTLASGVPSRFKGSGSGTQFTLTISDLECDDAATYYCAGGYGGGLYAFGGGTKVEIKR
notes: Chimeric antibody: rabbit variable regions, human G1m / k0MC constant regions; also called MST1032-G1m
